In US20230039165A1 (ENTHERA S R L, published 2023):

B1: M1 (antibody, V domains shown)
VH: QVQLQESGPGLVKPSETLSLTCTVSGGSISTYYWSWIRQPPGKGLEWIGYIYYSGSTNYNPSLKSRVTISVDTSKNQFSLKLSSVTAADTAVYYCARYDIVTGYPHYYYYVMDVWGQGTTVTVSS
VL: AIQMTQSPSSLSASVGDRVTITCRASRGIRNALGWYQQKPGTAPKLLIYAASSLQSGVPSRFSGSGSGTDFTLTISSLQPEDSATYYCLQDYNYPLTFGGGTKVEIK
notes: Only variable domains are tied to M1; also called anti-IGFBP3 mAb M1; Anti-IGFBP3 M1
B2: E01 (antibody, V domains shown)
VH: QVQLVESGGGVVQPGRSLRLSCAASGFTFSSYGMHWVRQAPGKGLEWVAVISYDGSNKNYVDSVKGRFTISRDNSKNTLYLQMNSLRAEDTAVYYCARGGEYFYYYGLDVWGQGTTVTVSS
VL: EIVMTQSPATLSLSPGERATLSCRASQSVSSSSLSWYQQKPGQAPRLLIYGASTRATGIPARFSGSGSGTDFTLTISSLQPEDFAVYYCQQDYNLPLTFGGGTKVEIK
notes: From Trianni Mouse hybridomas: chimeric mAb with human VH and VK and mouse constant domains; also called anti-IGFBP3 mAb E01
B3: E19 (antibody, V domains shown)
VH: QVQLVESGGGVVQPGRSLRLSCAASGFTFSSYGMHWVRQAPGKGLEWVAVISYDGSNKNYVDSVKGRFTISRDNSKNTLYLQMNSLRAEDTAVYYCARGGEYFYYYGLDVWGQGTTVTVSS
VL: AIQLTQSPSSLSASVGDRVTITCRAGQGISSALAWYQQKPGKAPKILIYDASSLESGVPSRFSGSGSGTDFTLTISSLQPEDFATYYCQQFNNYPSTFGQGTKLEIK
notes: From Trianni Mouse hybridomas: chimeric mAb with human VH and VK and mouse constant domains; also called anti-IGFBP3 mAb E19
B4: E02 (antibody, V domains shown)
VH: QVQLVQSGAEVKKPGASVKVSCKASGYTFSNYGISWVRQAPGQGLEWMGWINTYNGNTNYAQKLQGRVTMTTDTSTSTAYMALRGLRSDDTAVYYCARDRGYSSSPYYYYYGMDVWGQGTTVTVSS
VL: EIVMTQSPATLSLSPGERATLSCRASQSVSSSHLSWYQQKPGQAPRLLIYGASTRATGIPARFSGSGSGTDFTLTISSLQPEDFAVYYCQQDYNLTITFGQGTRLEIK
notes: From Trianni Mouse hybridomas: chimeric mAb with human VH and VK and mouse constant domains; also called anti-IGFBP3 mAb E02
B5: E08 (antibody, V domains shown)
VH: QVQLVQSGAEVKKPGASVKVSCKASGYTFSNYGISWVRQAPGQGLEWMGWINTYNGNTNYAQKLQGRVTMTTDTSTSTAYMALRGLRSDDTAVYYCARDRGYSSSPYYYYYGMDVWGQGTTVTVSS
VL: EIVMTQSPATLSLSPGERATLSCRASQSVSSSSLSWYQQKPGQAPRLLIYGASTRATGIPARFSGSGSGTDFTLTISSLQPEDFAVYYCQQDYNLPLTFGGGTKVEIK
notes: From Trianni Mouse hybridomas: chimeric mAb with human VH and VK and mouse constant domains; also called anti-IGFBP3 mAb E08
B6: E14 (antibody, V domains shown)
VH: QVQLVQSGAEVKKPGASVKVSCKASGYTFSNYGISWVRQAPGQGLEWMGWINTYNGNTNYAQKLQGRVTMTTDTSTSTAYMALRGLRSDDTAVYYCARDRGYSSSPYYYYYGMDVWGQGTTVTVSS
VL: DIQMTQSPSSLSASIGDRVTITCRASQGISNYLAWFQQKPGKAPKSLIYAASSLQSGVPSKFSGSGSGTDFTLTISSLQPEDFATYYCQQYNSYPFTFGPGTKVDIK
notes: From Trianni Mouse hybridomas: chimeric mAb with human VH and VK and mouse constant domains; also called anti-IGFBP3 mAb E14
B7: E24 (antibody, V domains shown)
VH: QVQLVQSGAEVKKPGASVKVSCKASGYTFTNYGISWVRQAPGQGLEWMGWINAYNGNTNYAQKLQGRVTMTTVTYTSTAYMELRSLRSDDTAVYYCARDRGYSSSPYYYYYGMDVWGQGTTVTVSS
VL: AIQMTQSPSSLSASVGDKVTITCRASQGIRNALGWYQQKPGTAPKLLIYAASSLQSGVPSRFSGSGSGTDFTLTISSLQPEDSATYYCLQDYNYPLTFGGGTKVEIK
notes: From Trianni Mouse hybridomas: chimeric mAb with human VH and VK and mouse constant domains; also called anti-IGFBP3 mAb E24
B8: E20 (antibody, V domains shown)
VH: QVQLVQSGAEVKKPGASVKVSCKASGYTFSNYGISWVRQAPGQGLEWMGWINTYNGNTNYAQKLQGRVTMTTDTSTSTAYMALRGLRSDDTAVYYCARDRGYSSSPYYYYYGMDVWGQGTTVTVSS
VL: DIQMTQSPSSLSASVGDRVTITCRASQGIRNDLGWYQQKPGKAPKRLIYAASSLQSGVPSRFSGSGSGTEFTLTISSLQPEDFATYYCLQHNSYPYTFGQGTKLEIK
notes: From Trianni Mouse hybridomas: chimeric mAb with human VH and VK and mouse constant domains; also called anti-IGFBP3 mAb E20
B9: Human Ecto-TMEM219 (receptor)
chain: THRTGLRSPDIPQDWVSFLRSFGQLTLCPRNGTVTGKWRGSHVVGLLTTLNFGDGPDRNKTRTFQATVLGSQMGLKGSSAGQLVLITARVTTERTAGTCLYFSAVPGILPSSQPPISCSEEGAGNATLSPRMGEECVSVWSHEGLVLTKLLTSEELALCGSR
notes: Produced in E. coli by Genescript; In the ELISA it was detected with anti 6x His tag HRP, so it probably carries a His tag; also called extracellular domain of the TMEM219 receptor

Experiments:
Recombinant human IGFBP3 [1] = molecular target: T1, Recombinant human IGFBP3 (human, UniProt P17936 28-291); assay: Octet BLI; mAb captured via Fc on anti-mouse/anti-human IgG Fc biosensor, human IGFBP3 at 150 nM
T1 construct: also called rhIGFBP3; hIGFBP3
T1 sequence (P17936 28-291 limits assumed): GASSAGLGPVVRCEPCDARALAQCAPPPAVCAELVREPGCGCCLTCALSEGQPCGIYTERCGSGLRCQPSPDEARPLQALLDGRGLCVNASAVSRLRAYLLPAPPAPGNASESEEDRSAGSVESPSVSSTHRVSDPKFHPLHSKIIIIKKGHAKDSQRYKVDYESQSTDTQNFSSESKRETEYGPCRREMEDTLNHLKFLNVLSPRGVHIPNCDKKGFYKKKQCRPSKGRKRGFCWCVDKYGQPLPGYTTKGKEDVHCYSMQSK
Experimental: The binding affinity measurements were performed using an Octet instrument (Octet BMIA), which is a Biolayer Interferometry (BLI) platform based on Biomolecular Interaction Analysis.

Recombinant human IGFBP3 [2] = molecular target: T1, Recombinant human IGFBP3; assay: ELISA: plate coated with rhIGFBP3 4 µg/ml, His-tagged ecto-TMEM219 10 µg/ml added, detection with anti-HisTag HRP, absorbance
Experimental: We also employed a blocking reagent solution (3% BSA in PBS) and a diluent solution (0.5% BSA, 0.05% Tw in PBS).
Plate was incubated 90 minutes at 37° C. and washed with PBS (300 μl/well) and incubated with the blocking reagent (200 μl/well) 2 hours at room temperature. […] After washing steps, plate was then incubated at room temperature for 1 hour with anti 6× His tag HRP diluted 1:2000 in Diluent solution (50 μl/well). ELISA plate was then read after adding visualization solution at ELISAreader and adsorbance was measured.

Row | Binder | Kd (Recombinant human IGFBP3 [1]) | binding result (Recombinant human IGFBP3 [2])
1 | B1 | > 0.001 nM | –
2 | B2 | 1.2 nM | –
3 | B3 | 0.69 nM | –
4 | B4 | > 0.001 nM | –
5 | B5 | 0.61 nM | –
6 | B6 | 0.85 nM | –
7 | B7 | > 0.001 nM | –
8 | B8 | 0.85 nM | –
9 | B9 | – | binds
